Values belong to the binder of their own block, whether it stands above or below them. Starred links: 1 amine or outer side, 2 acyl side, 3 side chain; linkers in the order of their positions; H or OH if unused. Positions of bridges follow the written chain, without caps; N, C: chain ends. Non-standard residues stand in square brackets, D forms with d. Primed or numbered codes have the meaning given here. PyrS2″ = (S)-3-amino-1-((pent-4-en-1-yloxy)carbonyl)pyrrolidine-3-carboxylic acid (stapling residue), C=CCCCOC(=O)N1CC[C@@](N[*:1])(C(=O)[*:2])C1; RdN″ = (R)-4-(((allyloxy)carbonyl)(methyl)amino)-2-amino-2-methylbutanoic acid (stapling residue), C=CCOC(=O)N(C)CC[C@@](C)(N[*:1])C(=O)[*:2]; TfeGA = (S)-2-amino-3-((carboxymethyl)(2,2,2-trifluoroethyl)amino)propanoic acid, O=C([C@H](CN(CC(=O)[*:3])CC(F)(F)F)N[*:1])[*:2]; B5(3) = 2,2-bis(4-pentenyl)glycine (stitching residue), C=CCCCC(CCCC=C)(N[*:1])C(=O)[*:2]; S7 = C[C@@](CCCCCC=[*:3])(N[*:1])C(=O)[*:2]; Phe(2-Cl) = N[C@@H](Cc1ccccc1Cl)C(=O)O; Bta = N[C@@H](Cc1csc2ccccc12)C(=O)O; αAllylPro = C=CC[C@@]1(C(=O)O)CCCN1; tBuAla = CC(C)(C)C[C@H](N)C(=O)O; Thr(ol) = C[C@@H](O)[C@H](N)CO
Legend:
beta-catenin [1] = biological target: T1, beta-catenin (Homo sapiens (Human), UniProt P35222 1-781); assay: cell-based or functional assay
T1 sequence: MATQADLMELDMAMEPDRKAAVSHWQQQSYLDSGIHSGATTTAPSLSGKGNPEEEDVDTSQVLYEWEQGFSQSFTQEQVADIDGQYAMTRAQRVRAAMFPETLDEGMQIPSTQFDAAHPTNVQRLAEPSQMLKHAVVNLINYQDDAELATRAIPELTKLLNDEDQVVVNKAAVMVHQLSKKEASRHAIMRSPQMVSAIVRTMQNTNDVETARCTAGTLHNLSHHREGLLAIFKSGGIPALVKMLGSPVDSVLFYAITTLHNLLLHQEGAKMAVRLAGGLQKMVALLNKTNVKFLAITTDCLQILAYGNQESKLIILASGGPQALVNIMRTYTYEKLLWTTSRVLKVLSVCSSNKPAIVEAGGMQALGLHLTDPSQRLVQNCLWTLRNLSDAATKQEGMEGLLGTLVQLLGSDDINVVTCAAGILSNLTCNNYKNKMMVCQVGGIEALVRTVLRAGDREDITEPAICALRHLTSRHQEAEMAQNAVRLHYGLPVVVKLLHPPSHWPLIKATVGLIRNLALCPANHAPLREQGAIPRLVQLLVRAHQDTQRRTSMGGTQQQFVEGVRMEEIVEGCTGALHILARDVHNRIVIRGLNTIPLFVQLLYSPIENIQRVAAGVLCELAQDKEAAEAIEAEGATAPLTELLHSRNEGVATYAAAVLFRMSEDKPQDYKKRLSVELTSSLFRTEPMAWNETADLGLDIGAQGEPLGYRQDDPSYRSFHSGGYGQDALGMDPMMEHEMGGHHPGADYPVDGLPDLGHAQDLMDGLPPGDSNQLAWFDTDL

beta-catenin [2] = biological target: T2, beta-catenin (Homo sapiens (Human), UniProt P35222 2-781); assay: cell-based or functional assay
T2 sequence: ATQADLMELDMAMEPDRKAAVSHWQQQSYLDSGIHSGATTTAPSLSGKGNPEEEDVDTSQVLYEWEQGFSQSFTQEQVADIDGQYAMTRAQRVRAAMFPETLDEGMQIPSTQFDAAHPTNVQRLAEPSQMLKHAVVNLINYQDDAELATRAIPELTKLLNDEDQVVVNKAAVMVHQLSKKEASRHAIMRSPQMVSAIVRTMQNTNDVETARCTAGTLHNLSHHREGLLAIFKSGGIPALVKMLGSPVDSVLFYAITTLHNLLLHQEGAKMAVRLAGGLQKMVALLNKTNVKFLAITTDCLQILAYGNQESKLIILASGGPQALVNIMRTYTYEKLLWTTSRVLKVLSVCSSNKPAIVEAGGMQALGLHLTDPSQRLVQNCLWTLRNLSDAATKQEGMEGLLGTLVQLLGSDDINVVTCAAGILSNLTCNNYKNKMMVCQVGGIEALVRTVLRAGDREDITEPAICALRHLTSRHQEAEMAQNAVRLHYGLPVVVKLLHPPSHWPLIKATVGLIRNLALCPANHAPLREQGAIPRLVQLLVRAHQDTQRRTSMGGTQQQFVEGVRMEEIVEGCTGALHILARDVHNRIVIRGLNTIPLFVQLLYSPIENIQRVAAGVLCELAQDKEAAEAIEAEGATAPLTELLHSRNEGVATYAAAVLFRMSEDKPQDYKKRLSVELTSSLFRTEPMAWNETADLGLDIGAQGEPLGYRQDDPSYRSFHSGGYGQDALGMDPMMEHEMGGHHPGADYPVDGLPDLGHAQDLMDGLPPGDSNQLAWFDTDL

[3] = biological target: T3, full-length beta-Catenin (Uniprot ID P35222) (Homo sapiens (Human), UniProt P35222 2-781); assay: AlphaScreen competition vs biotin-TCF4(10-53) on full-length beta-catenin
T3 construct: The assay text says 'full-length'; also called B-Catenin; bCat
T3 sequence: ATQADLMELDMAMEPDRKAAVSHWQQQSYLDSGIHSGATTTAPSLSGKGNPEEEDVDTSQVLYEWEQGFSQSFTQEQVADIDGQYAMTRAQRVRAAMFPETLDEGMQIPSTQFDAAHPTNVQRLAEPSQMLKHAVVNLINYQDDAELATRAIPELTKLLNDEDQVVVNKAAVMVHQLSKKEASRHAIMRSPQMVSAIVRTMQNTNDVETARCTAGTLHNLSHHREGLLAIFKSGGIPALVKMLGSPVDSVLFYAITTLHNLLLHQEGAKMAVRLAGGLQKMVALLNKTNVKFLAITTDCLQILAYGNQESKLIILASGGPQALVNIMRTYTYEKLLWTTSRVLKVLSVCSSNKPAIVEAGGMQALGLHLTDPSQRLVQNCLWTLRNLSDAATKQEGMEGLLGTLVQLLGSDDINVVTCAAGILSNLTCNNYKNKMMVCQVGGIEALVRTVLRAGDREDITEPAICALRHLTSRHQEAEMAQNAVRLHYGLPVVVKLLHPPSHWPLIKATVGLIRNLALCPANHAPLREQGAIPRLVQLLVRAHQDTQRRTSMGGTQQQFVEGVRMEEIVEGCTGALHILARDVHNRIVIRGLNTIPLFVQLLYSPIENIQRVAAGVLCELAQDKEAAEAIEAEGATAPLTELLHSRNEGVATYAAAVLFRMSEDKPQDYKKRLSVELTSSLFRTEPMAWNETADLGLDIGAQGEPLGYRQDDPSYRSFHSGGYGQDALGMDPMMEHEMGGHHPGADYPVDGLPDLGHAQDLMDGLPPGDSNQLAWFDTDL
Procedure: Equal volume of the titrated peptide was added to the plate and incubated for 15 minutes at 20° C. Then 4 uL of donor and 4 uL acceptor beads at 10 ug/mL were added to the plate, for a 16 uL reaction pool and protected from light for 60 minutes at 20° C. prior to read. Reads were performed on a CLARIOstar plate reader (BMG Labtech) in duplicate, and data were fitted to a 1:1 binding model with hill slope using an in-house script. All provided concentrations are final concentrations.

- DLD1 TCF c2 BrightGlo % Inhibition, 0.625 uM, replicate 1 (beta-catenin [1]): 11%
- DLD1 TCF c2 BrightGlo % Inhibition, 0.625 uM, replicate 2 (beta-catenin [1]): 10.7%
- DLD1 TCF c2 BrightGlo % Inhibition, 0.625 uM, replicate 3 (beta-catenin [1]): 15.5%
- DLD1 TCF c2 BrightGlo % Inhibition, 1.25 uM, replicate 1 (beta-catenin [1]): 5.7%
- DLD1 TCF c2 BrightGlo % Inhibition, 1.25 uM, replicate 2 (beta-catenin [1]): 22.3%
- DLD1 TCF c2 BrightGlo % Inhibition, 1.25 uM, replicate 3 (beta-catenin [1]): 21.2%
- DLD1 TCF c2 BrightGlo % Inhibition, 2.5 uM, replicate 1 (beta-catenin [1]): 13.3%
- DLD1 TCF c2 BrightGlo % Inhibition, 2.5 uM, replicate 2 (beta-catenin [1]): 28.8%
- DLD1 TCF c2 BrightGlo % Inhibition, 2.5 uM, replicate 3 (beta-catenin [1]): 33.4%
- DLD1 TCF c2 BrightGlo % Inhibition, 5 uM, replicate 1 (beta-catenin [1]): 32%
- DLD1 TCF c2 BrightGlo % Inhibition, 5 uM, replicate 2 (beta-catenin [1]): 57.8%
- DLD1 TCF c2 BrightGlo % Inhibition, 5 uM, replicate 3 (beta-catenin [1]): 62%
- DLD1 TCF c2 BrightGlo % Inhibition, 10 uM, replicate 1 (beta-catenin [1]): 61.5%
- DLD1 TCF c2 BrightGlo % Inhibition, 10 uM, replicate 2 (beta-catenin [1]): 72%
- DLD1 TCF c2 BrightGlo % Inhibition, 10 uM, replicate 3 (beta-catenin [1]): 76.2%
- DLD1 TCF c2 BrightGlo % Inhibition, 20 uM, replicate 1 (beta-catenin [1]): 78.1%
- DLD1 TCF c2 BrightGlo % Inhibition, 20 uM, replicate 2 (beta-catenin [1]): 81.3%
- DLD1 TCF c2 BrightGlo % Inhibition, 20 uM, replicate 3 (beta-catenin [1]): 81.9%
Binder: Ac-[αAllylPro]D[tBuAla][B5(3)]D[TfeGA]AAFF[PyrS2″]F[Bta]Q-NH2 (staple 1-4, 4-11) [I-988]

- DLD1 TCF c2 BrightGlo % Inhibition (TCF/LEF luciferase reporter; 0.625 uM by plate map, replicate 1) (beta-catenin [2]): 14.1%
- DLD1 TCF c2 BrightGlo % Inhibition (TCF/LEF luciferase reporter; 0.625 uM by plate map, replicate 2) (beta-catenin [2]): 17.4%
- DLD1 TCF c2 BrightGlo % Inhibition (TCF/LEF luciferase reporter; 0.625 uM by plate map, replicate 3) (beta-catenin [2]): 20.3%
- DLD1 TCF c2 BrightGlo % Inhibition (TCF/LEF luciferase reporter; 1.25 uM by plate map, replicate 1) (beta-catenin [2]): 14%
- DLD1 TCF c2 BrightGlo % Inhibition (TCF/LEF luciferase reporter; 1.25 uM by plate map, replicate 2) (beta-catenin [2]): 21.5%
- DLD1 TCF c2 BrightGlo % Inhibition (TCF/LEF luciferase reporter; 1.25 uM by plate map, replicate 3) (beta-catenin [2]): 24%
- DLD1 TCF c2 BrightGlo % Inhibition (TCF/LEF luciferase reporter; 2.5 uM by plate map, replicate 1) (beta-catenin [2]): 17.3%
- DLD1 TCF c2 BrightGlo % Inhibition (TCF/LEF luciferase reporter; 2.5 uM by plate map, replicate 2) (beta-catenin [2]): 36.1%
- DLD1 TCF c2 BrightGlo % Inhibition (TCF/LEF luciferase reporter; 2.5 uM by plate map, replicate 3) (beta-catenin [2]): 37.9%
- DLD1 TCF c2 BrightGlo % Inhibition (TCF/LEF luciferase reporter; 5 uM by plate map, replicate 1) (beta-catenin [2]): 38.5%
- DLD1 TCF c2 BrightGlo % Inhibition (TCF/LEF luciferase reporter; 5 uM by plate map, replicate 2) (beta-catenin [2]): 56.2%
- DLD1 TCF c2 BrightGlo % Inhibition (TCF/LEF luciferase reporter; 5 uM by plate map, replicate 3) (beta-catenin [2]): 62%
- DLD1 TCF c2 BrightGlo % Inhibition (TCF/LEF luciferase reporter; 10 uM by plate map, replicate 1) (beta-catenin [2]): 63.9%
- DLD1 TCF c2 BrightGlo % Inhibition (TCF/LEF luciferase reporter; 10 uM by plate map, replicate 2) (beta-catenin [2]): 71%
- DLD1 TCF c2 BrightGlo % Inhibition (TCF/LEF luciferase reporter; 10 uM by plate map, replicate 3) (beta-catenin [2]): 75%
- DLD1 TCF c2 BrightGlo % Inhibition (TCF/LEF luciferase reporter; 20 uM by plate map, replicate 1) (beta-catenin [2]): 76.5%
- DLD1 TCF c2 BrightGlo % Inhibition (TCF/LEF luciferase reporter; 20 uM by plate map, replicate 2) (beta-catenin [2]): 77.1%
- DLD1 TCF c2 BrightGlo % Inhibition (TCF/LEF luciferase reporter; 20 uM by plate map, replicate 3) (beta-catenin [2]): 79.9%
Binder: Ac-[αAllylPro]D[tBuAla][B5(3)]DDAAFN[PyrS2″][Phe(2-Cl)][Bta][Thr(ol)] (staple 1-4, 4-11) [I-1082]

- EC50 [3]: ≥ 10 µM
Binder: Ac-FDA[RdN″]DDAAFV[S7]FWQ-NH2 (staple 4-11, Stapled peptide composition) [I-1]

— patent US20240116985A1 (published 2024)
